{
  "source": "paper PMC12328794",
  "about": "(Communications Biology, 2025)",
  "key": {"[1]": {"biological_target": "the molecule itself", "assay": "AUC; sedimentation velocity, 42,000 rpm, 20 °C, 20 mM Tris-HCl pH 7.5, 150 mM NaCl, 0.5 mM TCEP; c(s) distribution (SEDFIT); oligomeric state of the protein alone"}, "[2]": {"biological_target": "T1, cytosolic domain of human Fis1 (Fis1_ΔTM, residues 1−123) (human, UniProt Q9Y3D6 1-123)", "T1 construct": "mitochondrial fission protein 1 (Fis1), human, cytosolic domain with the C-terminal TM region truncated, residues 1-123; pQlinkH vector: N-terminal polyhistidine tag followed by a TEV site; also called Fis1_ΔTM WT; Fis1_WT; source: E. coli Rosetta2(DE3), purified (Ni-NTA, SEC)", "T1 sequence (Q9Y3D6 1-123, stated change not applied)": "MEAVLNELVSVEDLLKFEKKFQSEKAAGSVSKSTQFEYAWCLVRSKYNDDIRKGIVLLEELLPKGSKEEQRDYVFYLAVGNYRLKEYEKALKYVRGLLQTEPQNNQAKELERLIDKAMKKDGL", "assay": "SPR; Fis1_ΔTM WT or mutants immobilised by amine coupling; Bap31 constructs flowed at 30 μl/min; 25 °C; 20 mM HEPES pH 7.5, 100 mM NaCl, 0.005% Tween 20; BSA reference subtracted; equilibrium analysis", "conditions": "both partners purified"}},
  "data": [
    {"binder": "Bap31 coiled-coil 2 (Bap31_CC2, residues 168−246) (domain or fragment, human, UniProt P51572 168-246, looked up, B-cell receptor-associated protein 31 (Bap31), human, coiled-coil 2, residues 168-246; source: E. coli Rosetta2(DE3), purified (Ni-NTA, SEC)) LDVGNAEVKLEEENRSLKADLQKLKDELASTKQKLEKAENQVLAMRKQSEGLTKEYDRLLEEHAKLQAAVDGPMDKKEE", "values": [
      {"measurement": "stoichiometry N", "setting": "[1]", "result": "~2"}
    ]},
    {"binder": "Bap31 coiled-coil 2 (Bap31_CC2, residues 168−246) WT (domain or fragment, human, UniProt P51572 168-246, looked up, B-cell receptor-associated protein 31 (Bap31), human, coiled-coil 2, residues 168-246; also called Bap31_CC2 WT; Bap31_WT; source: E. coli Rosetta2(DE3), purified (Ni-NTA, SEC)) LDVGNAEVKLEEENRSLKADLQKLKDELASTKQKLEKAENQVLAMRKQSEGLTKEYDRLLEEHAKLQAAVDGPMDKKEE", "values": [
      {"measurement": "Kd", "setting": "[2]", "result": 58, "unit": "µM"}
    ]},
    {"binder": "Bap31_vDED (residues 168−233 + SAAA) (domain or fragment, human, B-cell receptor-associated protein 31 (Bap31), human, variant of the death effector domain, residues 168-233; also called Bap31_vDED+SAAA; Bap31_168-233+SAAA; source: E. coli Rosetta2(DE3), purified (Ni-NTA, SEC)) LDVGNAEVKLEEENRSLKADLQKLKDELASTKQKLEKAENQVLAMRKQSEGLTKEYDRLLEEHAKLSAAA", "values": [
      {"measurement": "stoichiometry N", "setting": "[1]", "result": "~2"}
    ]}
  ]
}
